This series in a line: soluble on expression in E. coli; label from the status in PepcDB or PDB records.
As for “SNAMADKIKVGLLGYGYASKTFHAPLIMGTPGLELAGVSSSDASKVHADWPAIPVVSDPQMLFNDPSIDLIVIPTPNDTHFPLAQSALAAGKHVVVDKPFTVTLSQANALKEHADDAGLLLSVFHNRRWDSDFLTLKTLLAEGSLGNVVYFESHFDRYRPEIRQRWREQAGAGGGIWYDLGPHLLDQALQLFGLPETLNVDLGMLRPGSQSVDYFHAVLSYPGQRVVLHSTVLAAAETARYIVHGTQGSYIKFGVDPQEDRLKAGERLPQADWGYDMRDGIVTLSHDNVLTEKPLLTLPGNYPAYYAGIRDAIWGTAPNPVPATEAIKVMELIELGIASDQQKKALPIIAKN”, the “soluble on expression in E. coli” value is reported as “soluble”.
Turning to “SNAMKADILLVSHSKMITDGIKEMIEQMNASEEITIHSLGGTSDGSLGSDPMKIIDTINEADSDREFLIFADLGSAVLSSELAFDMLEEDQQKHYHLVDAPLVEGAFASAITAGVSDDLTQILAEAQNAGKKGWN”, the “soluble on expression in E. coli” value is on record as “soluble”.
Take “SNAMKEALATGSEAWWRTKTGPEWIREKDGNYRVTFWWRDPQGNETHSPIRRVWVYITGVTDHHQNAQPQTMARIAGTDVWRWSTALSANWRGSYCFIPTERDDVFAAFAPGETPDRNVLREGWRQLLPQAIADPLNSQSWRGGRGHAVSALEMPDAPLQPGWDRPETPYSPPLMMQWHSERLGNSRRVWILTTGDEAPEERPLAILLDGQFWAENMPVWPALASLTHQRLLPGAVYLLIDAIDTQHRSQELPCNADFWLAVQQELLPQVRAVTPFSDDAGRTVVAGQSFGGLSALYAGLNWPTRFGCVLSQSGSFWWPHRITPPEGEVITRLKTGALCARGLRIVLEAGVREPIVFQANQALYAQLNTSQQSIFWRQVDGGHDALCWRGGLTQGLMLLWQPLIDTL”: the “soluble on expression in E. coli” value is recorded as “soluble”.
With “SNAMKIVIAPDSYKESLSALEVATAIEQGFREIWPDADYLKLPLADGGEGTVEAMVEATAGRIVHVEVTGPLGHRVNAFYGLSGDARSAFIEMAAASGLEQVPPAQRDPLKTTSWGTGELIRHALDAGVEHIIIGIGGSATNDGGAGMVQALGARLRDAQGNDIAQGGIGLETLASIDISGLDKRLSACHIEVACDVTNPLTGKEGASAVFGPQKGATPEMIERLDTALTRYAHLIARDLHVDVLDLAGGGAAGGMGAALYAFCGAQLRRGIEIVTDALHLEACLADADLVITGEGRIDSQTIHGKVPIGVANIAKRYNKPVIGIAGSLTADVSVVHEHGLDAVFSVIYTICTLEDALKNASENVRMTARNVAATLKAGQQLR”, the “soluble on expression in E. coli” value is “soluble”.
As for “SNAMKLYIYDHCPFCVKARMIFGLKNIPVELNVLQNDDEATPTRMIGQKMVPILQKDDSRYLPESMDIVHYVDNLDGKPLLTGKRNPAIEEWLRKVNGYVNQLLLPRFAKSAFDEFSTPAARQYFIRKKEASSGSFDNHLAHSAGLIKKIGDDLRLLDKLIVQPNAVNGELSEDDIHLFPLLRNLTLVAGIHWPTKVADYRDNMAKQTQINLLSSMAI”, the “soluble on expression in E. coli” value is “soluble”.
Regarding “SNAMKPENKIPVLTRLSDEMTAVVNFQQPGLPPWPADGDIETQRQYYLLERRFWNADAPSMTTRTCAVPTPYGDVTTRLYSPQPTSQATLYYLHGGGFILGNLDTHDRIMRLLARYTGCTVIGIDYSLSPQARYPQAIEETVAVCSYFSQHADEYSLNVEKIGFAGDSAGAMLALASALWLRDKHIRCGNVIAILLWYGLYGLQDSVSRRLFGGAWDGLTREDLDMYEKAYLRNDEDRESPWYCLFNNDLTRDVPPCFIASAEFDPLIDDSRLLHQTLQAHQQPCEYKMYPGTLHAFLHYSRMMTIADDALQDGARFFMARMKTPR”, the “soluble on expression in E. coli” value was “soluble”.
“SNAMKRSIEDTPIVLIGAGNLATNLAKALYRKGFRIVQVYSRTEESARELAQKVEAEYTTDLAEVNPYAKLYIVSLKDSAFAELLQGIVEGKREEALMVHTAGSIPMNVWEGHVPHYGVFYPMQTFSKQREVDFKEIPFFIEASSTEDAAFLKAIASTLSNRVYDADSEQRKSLHLAAVFTCNFTNHMYALAAELLKKYNLPFDVMLPLIDETARKVHELEPKTAQTGPAIRYDENVIGNHLRMLADDPAMQRLYELLSRSIHERQ”: the “soluble on expression in E. coli” value was “soluble”.
For “SNAMKTEKDKMLAGEMYIADDEELVADRVEAKRLTRLYNEAVETGDERRFTLLNQLLGSSADGKAQINPDFRCDYGYNIHVGKSFFANFNCVILDVCEVRIGDHCMFAPGVHIYTATHPLHPVERNSGKEYGKPVKIGNNVWVGGGAIINPGVSIGDNAVIASGAVVTKDVPNNVVVGGNPAKVIKTIEE”, the “soluble on expression in E. coli” value is on record as “soluble”.
Consider “SNAMKYTVYLFDFDYTLADSSRGIVTCFRSVLERHGYTGITDDMIKRTIGKTLEESFSILTGITDADQLESFRQEYSKEADIYMNANTILFPDTLPTLTHLKKQGIRIGIISTKYRFRILSFLRNHMPDDWFDIIIGGEDVTHHKPDPEGLLLAIDRLKACPEEVLYIGDSTVDAGTAAAAGVSFTGVTSGMTTAQEFQAYPYDRIISTLGQLISVPEDKSGCPL”, for which the “soluble on expression in E. coli” value is “soluble”.
On to “SNAMLNTLIVGASGYAGAELVTYVNRHPHMNITALTVSAQSNDAGKLISDLHPQLKGIVELPLQPMSDISEFSPGVDVVFLATAHEVSHDLAPQFLEAGCVVFDLSGAFRVNDATFYEKYYGFTHQYPELLEQAAYGLAEWCGNKLKEANLIAVPGCYPTAAQLALKPLIDADLLDLNQWPVINATSGVSGAGRKAAISNSFCEVSLQPYGVFTHRHQPEIATHLGADVIFTPHLGNFPRGILETITCRLKSGVTQAQVAQALQQAYAHKPLVRLYDKGVPALKNVVGLPFCDIGFAVQGEHLIIVATEDNLLKGAAAQAVQCANIRFGYAETQSLI”, for which the “soluble on expression in E. coli” value is recorded as “soluble”.
The entry for “SNAMNASAVETIYESTEDKAALTSVVDLVKLSDQYRQSAILHYAVADKLFDLTQTGRTPAEVAASFGMVEGKAAILLHALAALGLLTKEGDAFRNTALTERYLTTTSADYIGPIVEHQYLQWDNWPRLGEILRSEKPLAFQQESRFAHDTRARDAFNDAMVRLSQPMVDVVSELGVFARARTVIDLAGGHGTYLAQVLRRHPQLTGQIWDLPTTRDAARKTIHAHDLGGRVEFFEKNLLDARNFEGGAADVVMLNDCLHYFDAREAREVIGHAAGLVKPGGALLILTMTMNDDRVTPALSADFSLHMMVNTNHGELHPTPWIAGVVRDAGLAVGERSIGRYTLLIGQRSSGE” is “soluble”; for “SNAMNIQILQEQANTLRFLSADMVQKANSGHPGAPLGLADILSVLSYHLKHNPKNPTWLNRDRLVFSGGHASALLYSFLHLSGYDLSLEDLKNFRQLHSKTPGHPEISTLGVEIATGPLGQGVANAVGFAMAAKKAQNLLGSDLIDHKIYCLCGDGDLQEGISYEACSLAGLHKLDNFILIYDSNNISIEGDVGLAFNENVKMRFEAQGFEVLSINGHDYEEINKALEQAKKSTKPCLIIAKTTIAKGAGELEGSHKSHGAPLGEEVIKKAKEQAGFDPNISFHIPQASKIRFESAVELGDLEEAKWKDKLEKSAKKELLERLLNPDFNKIAYPDFKGKDLATRDSNGEILNVLAKNLEGFLGGSADLGPSNKTELHSMGDFVEGKNIHFGIREHAMAAINNAFARYGIFLPFSATFFIFSEYLKPAARIAALMKIKHFFIFTHDSIGVGEDGPTHQPIEQLSTFRAMPNFLTFRPADGVENVKAWQIALNADIPSAFVLSRQKLKALNEPVFGDVKNGAYLLKESKEAKFTLLASGSEVWLCLESANELEKQGFACNVVSMPCFELFEKQDKAYQERLLKGEVIGVEAAHSNELYKFCHKVYGIESFGESGKDKDVFERFGFSVSKLVNFILSK” it is “soluble”; for “SNAMSGNGNAAATAEENSPKMRVIRVGTRKSQLARIQTDSVVATLKASYPGLQFEIIAMSTTGDKILDTALSKIGEKSLFTKELEHALEKNEVDLVVHSLKDLPTVLPPGFTIGAICKRENPHDAVVFHPKFVGKTLETLPEKSVVGTSSLRRAAQLQRKFPHLEFRSIRGNLNTRLRKLDEQQEFSAIILATAGLQRMGWHNRVGQILHPEECMYAVGQGALGVEVRAKDQDILDLVGVLHDPETLLRCIAERAFLRHLEGGCSVPVAVHTAMKDGQLYLTGGVWSLDGSDSIQETMQATIHVPAQHEDGPEDDPQLVGITARNIPRGPQLAAQNLGISLANLLLSKGAKNILDVARQLNDAH” it is “soluble”.
For the sequence “SNAMSTISRDSCPALRAGVRLQHDRARDQWVLLAPERVVELDDIALVVAQRYDGTQSLAQIAQTLAAEFDADASEIETDVIELTTTLHQKRLLRL”, the “soluble on expression in E. coli” value is on record as “soluble”.
For the sequence “SNAMTQSPIFLTPVFKEKIWGGTALRDRFGYSIPSESTGECWAISAHPKGPSTVANGPYKGKTLIELWEEHREVFGGVEGDRFPLLTKLLDVKEDTSIKVHPDDYYAGENEEGELGKTECWYIIDCKENAEIIYGHTARSKTELVTMINSGDWEGLLRRIKIKPGDFYYVPSGTLHALCKGALVLETQQNSDATYRVYDYDRLDSNGSPRELHFAKAVNAATVPHVDGYIDESTESRKGITIKTFVQGEYFSVYKWDINGEAEMAQDESFLICSVIEGSGLLKYEDKTCPLKKGDHFILPAQMPDFTIKGTCTLIVSHI”, the “soluble on expression in E. coli” value is listed as “soluble”.
Regarding “SNAMTSLEEITKAIMADSQNKVFTEKNIEPLFAAPKTARINIVGQAPGIKAQESRLYWNDKSGDRLREWMGVDYDTFYHSGYFAVIPMDFYYPGKGKSGDLPPRKGFAQKWHQPILDLLPDIQLTILIGNYAQKYYLHQKSSVKLTDTVAHYKKYLPDYFPLVHPSPRNQIWMSRHPWFEAQVVPDLKKIIQQIIQSS”, the “soluble on expression in E. coli” value is given as “soluble”.
The entry for “SNAMVKDRQIQKTKVAIYNAFISLLQENDYSKITVQDVIGLANVGRSTFYSHYESKEVLLKELCEDLFHHLFKQGRDVTFEEYLVHILKHFEQNQDSIATLLLSDDPYFLLRFRSELEHDVYPRLREEYITKVDIPEDFLKQFLLSSFIETLKWWLHQRQKMTVEDLLKYYLTMVER” is “soluble”; for “SNASVRPSLWEFSSRVGMHVGASTPVPVPQAMEHVYAWYPRLNPMVQLSASRRLLAGSPWAVNVGIAVEKKGMEATTRVKDMKVAIVSDSPYAGNPDEEYPGLFTGDNNTEIRLGYLTIPVQAEYNMLKDRLKLRGGLYTSLLLESSFRVIIDGTMVYDDPKLGTAQMDLRELNFSDKIKGADFGVIIGADYYFARQ” it is “not soluble”.
The entry for “SNTKKEIIWYKEKAQKTNYSVVYIHGFGASKNEIYPVPNNIAKALNANIFFTRLKGHGINNKNAFRGITTQDWLRDIDEAINIGKLIGDKLVLIGTSNGGTASIWALANYPNEINSAVLISPNIFPYDKRTNIVYYPWGRQIAYLITGGYNKFETKEYKRKEHPTIKSHSSRVQHVDAIIAMMGLVTLLNSYNFNEIKIPLIITHTPNDHTVDPIKINEFIKNYGGEKKDIPIILLENSHAHLPIGNQSYKSAQNTSYFTKYVFDFINKINK” is “not soluble”; for “SPGNRENKEKKVFISLVGSRGLGCSISSGPIQKPGIFISHVKPGSLSAEVGLEIGDQIVEVNGVDFSNLDHKEAVNVLKSSRSLTISIVAAAGRELFMTDR” it is “soluble”; for “SPLPVALQTRLAKRGILKHLEPEPEEEIIAEDYDDDPVDYEATRLEGLPPSWYKVFDPSCGLPYYWNADTDLVSWLSPHDPNSVVTKSAKKLRSSNADAEEKLDRSHDKSDRGHDKSDRSHEKLDRGHDKSDRGHDKSDRDRERGYDKVDRERERDRERDRDRGYDKADREEGKERRHHRREELAPYPKSKKAVSRKDEELDPMDPSSYSDAPRGTWSTGLPKRNEAKTGADTTAAGPLFQQRPYPSPGAVLRANAEASRTKQQD” it is “soluble”.
